What all share (assay): ELISA, antigen-coated plate
The target in one experiment is T1, nAra h 2 (peanut, UniProt Q6PSU2 22-172).
T1 construct: Bought natural allergen; also called naturally extracted Ara h 2
T1 sequence (looked up): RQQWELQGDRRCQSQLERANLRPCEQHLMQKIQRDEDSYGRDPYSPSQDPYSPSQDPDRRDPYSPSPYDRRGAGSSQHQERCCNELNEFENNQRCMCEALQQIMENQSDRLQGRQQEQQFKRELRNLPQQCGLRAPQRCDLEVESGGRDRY
The procedure: (§1) EC50 binding of exemplary anti-peanut antibodies of the present invention to peanut allergens or peanut extract, was determined by ELISA. Serial dilutions of MAbs (from 1000 ng/ml down to 0.0169 ng/ml) were incubated for 2 hours with antigen-coated plates (coating overnight at 4° C. or 1 h at 37° C. with 1 μg/ml antigen in PBS, followed by wash out and blocking with 2% BSA in PBS). The plates were subsequently washed and binding of MAbs was detected with anti-human HRP-conjugated Fc-gamma-specific secondary antibody (Jackson ImmunoResearch, West Grove, Pa., USA). Concentrations of MAb resulting in half of maximal binding to respective antigens (EC50, ng/ml) were calculated using GraphPad Prism 5 software on sigmoidal dose-response curves (variable slope, 4 parameters) obtained by plotting the log of the concentration versus OD450 nm measurements; for the results see FIG. 3 and table 2.

A further experiment addresses T2, nAra h 1 (peanut, UniProt P43238 85-626).
T2 construct: Bought natural allergen; also called naturally extracted Ara h 1
T2 sequence (looked up): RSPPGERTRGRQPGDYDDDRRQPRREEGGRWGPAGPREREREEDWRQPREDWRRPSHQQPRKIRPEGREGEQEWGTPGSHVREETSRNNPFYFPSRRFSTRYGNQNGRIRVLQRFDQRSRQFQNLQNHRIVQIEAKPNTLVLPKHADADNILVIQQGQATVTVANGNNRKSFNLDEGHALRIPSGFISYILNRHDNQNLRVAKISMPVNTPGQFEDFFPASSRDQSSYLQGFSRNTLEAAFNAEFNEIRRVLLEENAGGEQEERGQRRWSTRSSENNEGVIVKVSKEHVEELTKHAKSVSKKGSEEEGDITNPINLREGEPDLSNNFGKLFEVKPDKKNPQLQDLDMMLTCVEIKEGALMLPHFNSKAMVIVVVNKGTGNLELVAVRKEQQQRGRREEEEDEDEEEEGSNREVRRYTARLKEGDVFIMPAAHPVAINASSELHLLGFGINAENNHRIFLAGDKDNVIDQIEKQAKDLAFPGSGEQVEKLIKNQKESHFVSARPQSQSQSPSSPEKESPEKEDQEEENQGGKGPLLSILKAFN
The procedure: as §1

Another experiment has as its target T3, nAra h 3 (peanut).
T3 construct: Bought natural allergen; also called naturally extracted Ara h 3
The procedure: as §1

For another experiment, the target named is T4, nAra h 6 (peanut, UniProt Q647G9 22-145).
T4 construct: Bought natural allergen; also called naturally extracted Ara h 6
T4 sequence (looked up): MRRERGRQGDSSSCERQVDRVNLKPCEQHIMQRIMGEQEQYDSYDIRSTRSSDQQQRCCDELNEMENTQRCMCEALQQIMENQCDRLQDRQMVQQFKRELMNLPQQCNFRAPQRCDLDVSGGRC
On the procedure:
as §1

B1: hm4B2 (antibody, V domains shown)
VH: QVQLQEAGPRLVKPSQTLSVTCTVSGASITIGGYYWSWIRQHPGKGLEWMGYIYSNGRTYYNPSLKSRIAMSIDTSKNQFSLKLTSVTAADTAIYFCAREAWETPLWGQGTLITVSS
VL: DIQMTQSPSSLSASVGDRVTITCQANQDIVNSLNWFQHKPGTAPKVLIYDASKLETGVPSRFSGSGSGTHFTFTISGLQPEDFATYFCQQYENLPHTFGQGTKLEIR
notes: also called 4B2 with mouse Fc; hmMAb 4B2
As for B1, the EC50 with nAra h 2 was found to be 0.0102 µg/mL.

B2: hm12G10 (antibody, V domains shown)
VH: EVQLLESGGRLLRPGGSLSLSCVASGFYFGDFGMSWVRQVPGKGLEWVSGIDWSGRSTGYVDSMKGRLTISRDNDKSSLYLQMNDLRGEDTAVYYCARVGRLCSGDSCDSMGAFDLWGQGTMVTVSS
VL: DIQLTQSPSTLSASIGDSVTITCRASQNIDNWLAWYQQKPGKAPRLLIYKASSLGSGVSSKFRGSGFGTEFTLTITSLQPDDFATYYCQKSNGYSRTFGQGTKVDIK
notes: also called 12G10 with mouse Fc; hmMAb 12G10
As to B2, the 50% effective concentration (EC50) was found to be 0.0067 µg/mL in the experiment with nAra h 2, 0.195 µg/mL in the experiment with nAra h 1, 0.0368 µg/mL with nAra h 3 and 0.0278 µg/mL with nAra h 6.

B3: hm37D5 (antibody, V domains shown)
VH: EEQLVESGGRLLRPGESLSLSCAAVGFNFGDFGMAWVRQPPGKGLEWVAGINWSGHSTGFVDSMKGRLTISRDSAKSSLFLQMNSLRGEDTAVYYCARVGRLCSGDICDSMGAFDLWGQGTMVTVSS
VL: DIQMTQSPSTLSASIGDRVTITCRASQTIDNWLAWYQQRPGKAPKLLIYQASSLQSGVSSRFRGSGSGTEFTLTITSLQPDDFATYYCQKSNGYSRTFGQGTKVEIK
notes: also called 37D5 with mouse Fc; hmMAb 37D5
With B3, the 50% effective concentration (EC50) in the experiment with nAra h 2 was found to be 0.0052 µg/mL; with nAra h 1, 0.115 µg/mL; in the experiment with nAra h 3, 0.0723 µg/mL; in the experiment with nAra h 6, 0.034 µg/mL.

B4: hm32B10 (antibody, V domains shown)
VH: QVQLVQSGAEVKKPGASVKVSCRASGYIFRNFDINWVRQATGQGLEWMGWMSPKSGDTGYAQKFQGRVTMTRDTSINTAYMELSSLTSEDSAVYYCARGVDGTNWGQGTRVTVSS
VL: DIVMTQSPDSLGVSLGERATISCKSSQSILDNSNNKNFIAWFQQKPGQPPKLLIYWASARESGVPDRFSGSGSGTEFTLTINSLQAEDVAVYYCYQYYSTPHTFGQGTKLDLR
notes: also called 32B10 with mouse Fc; hmMAb 32B10
For B4, the EC50 in the experiment with nAra h 2 came to 0.0099 µg/mL.

B5: hm2F8 (antibody, V domains shown)
VH: EVQLVESGGGLVKPGGSLRLSCAASGFIFSDYNMNWVRQAPGKGLEWVSSITRSSRTIYYADSVKGRFTISRDNAKNSLHLQMNSLRDADTAVYYCAREDFDVSTGPYYMDVWGNGTTVIVSS
VL: EIVLTQSPGTLSLSPGERATLSCRASQSVSNMFLVWYQQKPGQAPRLLMYGASTRATDIPDRFSGSGSGTDFTLTISRLEPEDFAVYYCQQNGNSPYTFGQGTKLEIK
notes: also called 2F8 with mouse Fc; hmMAb 2F8
With B5, the response with nAra h 2 was half-maximal at 0.0087 µg/mL (EC50).

For orientation: EC50 means the concentration giving half of the maximal effect.
